Results taken from paper PMC3170320, “Minimal Antizyme Peptide Fully Functioning in the Binding and Inhibition of Ornithine Decarboxylase and Antizyme Inhibitor” (PLoS ONE, 2011).

T1: human antizyme inhibitor, wild type (human, UniProt O14977 1-448)
T1 sequence (looked up): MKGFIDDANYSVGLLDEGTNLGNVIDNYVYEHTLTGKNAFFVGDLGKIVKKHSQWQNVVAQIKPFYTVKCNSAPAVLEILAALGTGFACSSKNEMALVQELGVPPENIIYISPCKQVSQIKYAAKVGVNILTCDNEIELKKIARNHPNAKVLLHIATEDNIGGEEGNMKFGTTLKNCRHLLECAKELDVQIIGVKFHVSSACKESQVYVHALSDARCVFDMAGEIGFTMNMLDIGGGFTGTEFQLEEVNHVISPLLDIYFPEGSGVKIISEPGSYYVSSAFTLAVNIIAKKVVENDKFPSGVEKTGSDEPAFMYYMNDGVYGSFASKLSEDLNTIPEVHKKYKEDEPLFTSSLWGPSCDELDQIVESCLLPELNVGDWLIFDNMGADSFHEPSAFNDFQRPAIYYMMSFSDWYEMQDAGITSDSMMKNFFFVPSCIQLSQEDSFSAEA

B1: human ornithine decarboxylase, wild type (enzyme, UniProt P11926 1-461, looked up)
chain: MNNFGNEEFDCHFLDEGFTAKDILDQKINEVSSSDDKDAFYVADLGDILKKHLRWLKALPRVTPFYAVKCNDSKAIVKTLAATGTGFDCASKTEIQLVQSLGVPPERIIYANPCKQVSQIKYAANNGVQMMTFDSEVELMKVARAHPKAKLVLRIATDDSKAVCRLSVKFGATLRTSRLLLERAKELNIDVVGVSFHVGSGCTDPETFVQAISDARCVFDMGAEVGFSMYLLDIGGGFPGSEDVKLKFEEITGVINPALDKYFPSDSGVRIIAEPGRYYVASAFTLAVNIIAKKIVLKEQTGSDDEDESSEQTFMYYVNDGVYGSFNCILYDHAHVKPLLQKRPKPDEKYYSSSIWGPTCDGLDRIVERCDLPEMHVGDWMLFENMGAYTVAAASTFNGFQRPTIYYVMSGPAWQLMQQFQNPDFPPEVEEQDASTLPVSCAWESGMKRHRAACASASINV
notes: ornithine decarboxylase (ODC, EC 4.1.1.17), human, wild type; Kd was fitted with an A+B to AB model; also called ODC

Columns and labels:
[1] = biological target: B1; test: AUC; sedimentation velocity, 42,000 rpm, 20°C; ODC fixed at 0.3 mg/mL, AZ or AZ peptide 0.015 to 0.2 mg/mL (molar ratio AZ/ODC 0.12 to 2); 30 mM Tris-HCl pH 7.4, 25 mM NaCl; global fit to the A+B to AB hetero-association model in SEDPHAT; conditions: both partners purified
[2] = biological target: T1, human antizyme inhibitor, wild type; test: cell-based or functional assay
[3] = biological target: B1; test: cell-based or functional assay
[4] = biological target: T1, human antizyme inhibitor, wild type; test: AUC; sedimentation velocity, 20°C; AZI fixed at 0.3 mg/mL, AZ or AZ peptide 0.05 to 0.24 mg/mL (molar ratio AZ/AZI 0.4 to 2.4); 30 mM Tris-HCl pH 7.4, 25 mM NaCl; global fit to the A+B to AB hetero-association model in SEDPHAT; conditions: both partners purified
[5] = biological target: the molecule itself; test: AUC; sedimentation velocity, 42,000 rpm, 20°C; ODC fixed at 0.3 mg/mL, AZ or AZ peptide 0.015 to 0.2 mg/mL (molar ratio AZ/ODC 0.12 to 2); 30 mM Tris-HCl pH 7.4, 25 mM NaCl; global fit to the A+B to AB hetero-association model in SEDPHAT

Binder | Kd [1] [nM] | IC50 of inhibition of ODC enzyme activity with ODC pre-incubated with equimolar AZI (m1 as the enzyme) [2] [nM] | IC50 of inhibition of ODC enzyme activity (ODC 0.19 µM), without AZI [3] [nM] | Kd [4] [nM] | binding result [5]
human antizyme, wild type (natural protein) not shown | 710 ± 5 | 500 | 160 | 27 ± 0.1 | 
human antizyme peptide AZ_100-176 (domain or fragment) not shown | 10800 ± 70 | 1420 | 430 |  | 
human antizyme peptide AZ_87-124 (domain or fragment) not shown | 12700 ± 280 | 1550 | 520 | 160 ± 1 | 
human antizyme peptide AZ_95-228 (domain or fragment) not shown | 1500 ± 10 | 570 | 160 | 24 ± 0.2 | 
human antizyme peptide AZ_95-176 (domain or fragment) not shown | 5600 ± 40 | 680 | 200 | 60 ± 4 | 
human antizyme peptide AZ_95-135 (domain or fragment) not shown | 10300 ± 70 | 1590 | 510 |  | 
human antizyme peptide AZ_95-124 (domain or fragment) not shown | 18600 ± 130 | 1980 | 650 | 280 ± 2 | 
human antizyme peptide AZ_100-228 (domain or fragment) not shown | 5300 ± 30 | 620 | 210 | 68 ± 0.7 | 
B1 |  |  |  |  | binds
